Test results: US20200262910A1 (SINGAPORE HEALTH SERVICES PTE, published 2020)

B1: Recombinant human IL11 (rhIL11, UniProtKB:P20809, Genscript) (ligand)
chain: PGPPPGPPRVSPDPRAELDSTVLLTRSLLADTRQLAAQLRDKFPADGDHNLDSLPTLAMSAGALGALQLPGVLTRLRADLLSYLRHVQWLRRAGGSSLKTLEPELGTLQARLDRLLRRLQLLMSRLALPQPPPDPPAPPLAPPSSAWGGIRAAHAILGGLHLTLDWAVRGLLLLKTRL
notes: It was amine-coupled to a CM5 chip in SPR
B2: Recombinant mouse IL11 (rmIL11, UniProtKB: P47873, Genscript) (ligand, UniProt P47873 22-199, looked up)
chain: PGPPAGSPRVSSDPRADLDSAVLLTRSLLADTRQLAAQMRDKFPADGDHSLDSLPTLAMSAGTLGSLQLPGVLTRLRVDLMSYLRHVQWLRRAGGPSLKTLEPELGALQARLERLLRRLQLLMSRLALPQAAPDQPVIPLGPPASAWGSIRAAHAILGGLHLTLDWAVRGLLLLKTRL
notes: Amine-coupled to a CM5 chip in SPR; also called biotinylated mouse Il11

Experiments:
[1] = target: T1, Human IL11RA (10252-H08H, SinoBiological) (human, UniProt Q14626 23-365); assay: SPR (BIAcore T200): ligand hIL11 immobilized, analyte hIL11RA, 1:1 Langmuir fit
T1 construct: also called hIL11RA
T1 sequence: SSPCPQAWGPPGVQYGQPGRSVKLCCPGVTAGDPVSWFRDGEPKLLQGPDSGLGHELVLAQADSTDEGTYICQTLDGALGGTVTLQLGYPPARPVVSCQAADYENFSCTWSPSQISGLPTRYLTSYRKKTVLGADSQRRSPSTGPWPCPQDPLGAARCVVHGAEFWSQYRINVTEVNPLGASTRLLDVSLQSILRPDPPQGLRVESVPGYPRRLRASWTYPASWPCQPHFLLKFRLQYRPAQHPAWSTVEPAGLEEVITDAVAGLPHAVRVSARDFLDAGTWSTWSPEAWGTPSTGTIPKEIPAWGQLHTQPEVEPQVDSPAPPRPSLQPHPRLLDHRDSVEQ
Procedure: (§1) SPR measurements were performed on a BIAcore T200 (GE Healthcare) at 25° C. Buffers were degassed and filter-sterilized through 0.2 μm filters prior to use. RhIL11 or rmIl11 was immobilized onto a carboxymethylated dextran (CM5) sensor chip using standard amine coupling chemistry. For kinetic analysis, a concentration series (3.125 nM to 100 nM) of human IL11RA or mouse Il11ra was injected over the rhIL11, rmIl11 and reference surfaces at a flow rate of 40 μl min⁻¹. All the analytes were dissolved in HBS-EP+ (BR100669, GE Healthcare) containing 1 mg ml⁻¹ BSA. The association and dissociation were measured for 150 s and 200 s respectively. After each analyte injection, the surface was regenerated by a 30 s injection of Glycine pH2.5, followed by a 5 min stabilisation period. All sensorgrams were aligned and double-referenced. Affinity and kinetic constants were determined by fitting the corrected sensorgrams with the 1:1 Langmuir model using BIAevaluation v3.0 software (GE Healthcare). The equilibrium binding constant KD was determined by the ratio of the binding rate constants kd/ka.

[2] = target: T2, Mouse IL11RA (50075-M08H, SinoBiological); mouse interleukin 11 receptor alpha chain 1 (mouse, UniProt Q64385 24-367); assay: SPR (BIAcore T200): ligand hIL11 immobilized, analyte mIL11RA, 1:1 Langmuir fit
T2 construct: also called mIL11RA1; IL11RA1
T2 sequence (looked up): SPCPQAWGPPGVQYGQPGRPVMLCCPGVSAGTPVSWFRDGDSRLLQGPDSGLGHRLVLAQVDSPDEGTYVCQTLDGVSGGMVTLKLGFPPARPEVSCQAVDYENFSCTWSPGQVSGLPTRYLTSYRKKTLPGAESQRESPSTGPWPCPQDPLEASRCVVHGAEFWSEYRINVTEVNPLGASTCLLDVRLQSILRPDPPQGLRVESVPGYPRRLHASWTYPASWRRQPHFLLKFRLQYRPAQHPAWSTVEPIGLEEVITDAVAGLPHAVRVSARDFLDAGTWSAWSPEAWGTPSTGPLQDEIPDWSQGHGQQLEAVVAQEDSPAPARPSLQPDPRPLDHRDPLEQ
Procedure: as §1

[3] = target: T2, Mouse IL11RA (50075-M08H, …); assay: SPR (BIAcore T200), IL11 immobilized on CM5, receptor as analyte, 1:1 Langmuir fit; rhIL11 (human ligand) on mouse IL11RA1
Procedure: as §1

[4] = target: T1, Human IL11RA (10252-H08H, …); assay: SPR (BIAcore T200, 25 C): rhIL11 immobilized on a CM5 chip, human IL11RA injected as analyte (3.125 to 100 nM), 1:1 Langmuir fit
Procedure: as §1

[5] = target: T2, Mouse IL11RA (50075-M08H, …); assay: SPR (BIAcore T200, 25 C): rhIL11 immobilized on a CM5 chip, mouse IL11RA injected as analyte (3.125 to 100 nM), 1:1 Langmuir fit
Procedure: as §1

[6] = target: T2, Mouse IL11RA (50075-M08H, …); assay: SPR (BIAcore T200): ligand mIL11 immobilized, analyte mIL11RA, 1:1 Langmuir fit
Procedure: as §1

[7] = target: T2, Mouse IL11RA (50075-M08H, …); assay: SPR (BIAcore T200), IL11 immobilized on CM5, receptor as analyte, 1:1 Langmuir fit; rmIL11 (mouse ligand) on mouse IL11RA1
Procedure: as §1

[8] = target: T2, Mouse IL11RA (50075-M08H, …); assay: SPR (BIAcore T200, 25 C): rmIL11 immobilized on a CM5 chip, mouse IL11RA injected as analyte (3.125 to 100 nM), 1:1 Langmuir fit
Procedure: as §1

| Kd [1] [nM] | koff [1] [s⁻¹] | kon [1] [M⁻¹ s⁻¹] | Kd [2] [nM] | koff [2] [s⁻¹] | kon [2] [M⁻¹ s⁻¹] | Kd [3] [nM] | Kd [4] [nM] | Kd [5] [nM] | Kd [6] [nM] | koff [6] [s⁻¹] | kon [6] [M⁻¹ s⁻¹] | Kd [7] [nM] | Kd [8] [nM] | Binder |
| --- | --- | --- | --- | --- | --- | --- | --- | --- | --- | --- | --- | --- | --- | --- |
| 45.3 | 0.0204 | 451000 | 72.3 | 0.012 | 166000 | 72 | 45.3 | 72.3 | – | – | – | – | – | B1 |
| – | – | – | – | – | – | – | – | – | 94.1 | 0.0115 | 122000 | 94 | 94.1 | B2 |
